In PMC11035800:

Experiments:
[1] = molecular target: CARM1 (UniProt Q86X55); experiment: anti-HA co-IP, anti-MYC blot; details: reference: MYC-CARM1 wild type; sites Y149
[2] = molecular target: RUNX1 (UniProt Q01196); experiment: anti-MYC IP, anti-RUNX1 blot; details: reference: MYC-CARM1 wild type

Sequence of UniProt Q86X55 (Q86X55 whole entry Y149F): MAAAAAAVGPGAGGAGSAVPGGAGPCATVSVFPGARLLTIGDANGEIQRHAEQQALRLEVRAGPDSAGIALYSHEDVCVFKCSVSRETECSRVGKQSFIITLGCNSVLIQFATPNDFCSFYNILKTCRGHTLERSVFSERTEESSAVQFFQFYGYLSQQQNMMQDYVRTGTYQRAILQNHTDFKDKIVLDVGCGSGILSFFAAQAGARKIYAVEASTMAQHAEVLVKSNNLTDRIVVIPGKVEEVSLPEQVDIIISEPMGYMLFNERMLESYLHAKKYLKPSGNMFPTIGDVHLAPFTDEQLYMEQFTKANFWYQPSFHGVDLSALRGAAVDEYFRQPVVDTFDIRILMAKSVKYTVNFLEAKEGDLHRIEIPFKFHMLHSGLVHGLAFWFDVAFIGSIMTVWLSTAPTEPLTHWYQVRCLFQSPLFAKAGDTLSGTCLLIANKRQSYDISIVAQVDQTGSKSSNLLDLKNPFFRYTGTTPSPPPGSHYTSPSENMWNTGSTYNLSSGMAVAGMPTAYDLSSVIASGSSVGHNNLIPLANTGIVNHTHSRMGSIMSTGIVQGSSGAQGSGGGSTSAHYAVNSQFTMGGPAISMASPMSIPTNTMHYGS

Substance	binding against the reference [1]	binding against the reference ([2]; sites Y149)	binding against the reference ([2]; sites Y334)
CARM1 (from UniProt Q86X55) MYC-CARM1 Y149F	weaker	lost	–
CARM1 (from UniProt Q86X55) MYC-CARM1 Y334F	–	–	lost
